# Target: full-length Brr2 with C-terminal calmodulin-binding domain (S. cerevisiae, UniProt P32639 1-2163)
# Test: pull-down
# Chain of full-length Brr2 with C-terminal calmodulin-binding domain (P32639 whole entry, the tested form may be a part): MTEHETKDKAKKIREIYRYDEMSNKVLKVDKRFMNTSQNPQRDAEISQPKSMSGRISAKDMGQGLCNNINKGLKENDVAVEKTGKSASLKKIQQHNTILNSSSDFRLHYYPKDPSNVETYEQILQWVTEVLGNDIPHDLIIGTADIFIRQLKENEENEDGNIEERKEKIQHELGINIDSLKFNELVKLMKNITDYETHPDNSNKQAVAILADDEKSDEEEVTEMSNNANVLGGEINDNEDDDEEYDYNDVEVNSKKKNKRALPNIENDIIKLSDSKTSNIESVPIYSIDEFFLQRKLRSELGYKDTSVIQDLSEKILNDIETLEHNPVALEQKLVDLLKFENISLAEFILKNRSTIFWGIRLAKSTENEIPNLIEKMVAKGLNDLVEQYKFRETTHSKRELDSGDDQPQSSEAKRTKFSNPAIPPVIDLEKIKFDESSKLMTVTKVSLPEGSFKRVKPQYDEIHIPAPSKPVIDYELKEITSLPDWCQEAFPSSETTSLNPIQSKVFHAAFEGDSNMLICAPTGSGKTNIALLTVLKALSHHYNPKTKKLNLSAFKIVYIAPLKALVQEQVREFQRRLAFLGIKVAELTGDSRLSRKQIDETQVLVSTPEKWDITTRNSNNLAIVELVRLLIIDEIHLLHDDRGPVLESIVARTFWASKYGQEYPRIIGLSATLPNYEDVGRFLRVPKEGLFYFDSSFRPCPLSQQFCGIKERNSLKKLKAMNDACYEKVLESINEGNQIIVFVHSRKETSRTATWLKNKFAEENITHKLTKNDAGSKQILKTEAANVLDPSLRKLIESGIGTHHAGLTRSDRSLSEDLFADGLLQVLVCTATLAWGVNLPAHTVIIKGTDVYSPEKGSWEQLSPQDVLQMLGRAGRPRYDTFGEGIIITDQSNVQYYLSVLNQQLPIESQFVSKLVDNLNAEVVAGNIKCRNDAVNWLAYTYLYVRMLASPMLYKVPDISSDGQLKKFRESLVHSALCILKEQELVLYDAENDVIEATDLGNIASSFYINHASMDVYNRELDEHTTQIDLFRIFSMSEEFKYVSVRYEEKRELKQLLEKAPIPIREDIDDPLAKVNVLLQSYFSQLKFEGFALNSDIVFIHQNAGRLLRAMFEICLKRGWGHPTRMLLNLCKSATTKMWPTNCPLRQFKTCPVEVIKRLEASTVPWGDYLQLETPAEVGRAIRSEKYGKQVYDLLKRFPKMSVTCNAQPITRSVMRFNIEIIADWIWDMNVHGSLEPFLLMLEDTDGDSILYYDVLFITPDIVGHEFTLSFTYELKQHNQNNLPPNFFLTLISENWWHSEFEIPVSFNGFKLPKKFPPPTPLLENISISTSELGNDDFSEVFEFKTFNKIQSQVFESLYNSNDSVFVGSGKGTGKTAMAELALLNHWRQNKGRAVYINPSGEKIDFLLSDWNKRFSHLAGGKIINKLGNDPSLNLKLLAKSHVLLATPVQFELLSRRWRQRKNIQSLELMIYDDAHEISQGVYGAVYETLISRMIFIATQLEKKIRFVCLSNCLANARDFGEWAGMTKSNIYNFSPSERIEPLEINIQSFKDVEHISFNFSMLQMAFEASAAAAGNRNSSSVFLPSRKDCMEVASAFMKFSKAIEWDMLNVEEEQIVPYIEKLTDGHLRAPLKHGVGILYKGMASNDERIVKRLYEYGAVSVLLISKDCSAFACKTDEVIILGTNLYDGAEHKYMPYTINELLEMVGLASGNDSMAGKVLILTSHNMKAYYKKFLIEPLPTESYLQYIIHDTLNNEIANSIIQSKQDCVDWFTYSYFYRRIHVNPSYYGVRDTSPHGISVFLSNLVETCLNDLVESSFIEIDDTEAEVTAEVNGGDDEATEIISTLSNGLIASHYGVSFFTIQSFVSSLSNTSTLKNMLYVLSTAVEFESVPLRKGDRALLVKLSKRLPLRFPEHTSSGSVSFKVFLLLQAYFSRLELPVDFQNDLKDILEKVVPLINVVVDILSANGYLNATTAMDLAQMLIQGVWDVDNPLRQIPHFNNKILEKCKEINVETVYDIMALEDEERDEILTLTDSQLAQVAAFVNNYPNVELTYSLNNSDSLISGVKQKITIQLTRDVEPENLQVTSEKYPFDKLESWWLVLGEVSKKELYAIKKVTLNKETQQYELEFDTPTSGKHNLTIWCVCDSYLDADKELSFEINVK
row,binding result,Binder
1,binds,GST-tagged C-terminal fragment of Prp8 (1806-2413 aa) (domain or fragment) MKANPALYVLRERIRKGLQIYQSSVQEPFLNSSNYAELFNNDIKLFVDDTNVYRVTVHKTFEGNVATKAINGCIFTLNPKTGHLFLKIIHTSVWAGQKRLSQLAKWKTAEEVSALVRSLPKEEQPKQIIVTRKAMLDPLEVHMLDFPNIAIRPTELRLPFSAAMSIDKLSDVVMKATEPQMVLFNIYDDWLDRISSYTAFSRLTLLLRALKTNEESAKMILLSDPTITIKSYHLWPSFTDEQWITIESQMRDLILTEYGRKYNVNISALTQTEIKDIILGQNIKAPSVKRQKMAELEAARSEKQNDEEAAGASTVMKTKTINAQGEEIVVVASADYESQTFSSKNEWRKSAIANTLLYLRLKNIYVSADDFVEEQNVYVLPKNLLKKFIEISDVKIQVAAFIYGMSAKDHPKVKEIKTVVLVPQLGHVGSVQISNIPDIGDLPDTEGLELLGWIHTQTEELKFMAASEVATHSKLFADKKRDCIDISIFSTPGSVSLSAYNLTDEGYQWGEENKDIMNVLSEGFEPTFSTHAQLLLSDRITGNFIIPSGNVWNYTFMGTAFNQEGDYNFKYGIPLEFYNEMHRPVHFLQFSELAGDEELEAEQIDVFS
2,binds,GST-tagged Prp8-CTF with the RP mutation R2388K (domain or fragment) MKANPALYVLRERIRKGLQIYQSSVQEPFLNSSNYAELFNNDIKLFVDDTNVYRVTVHKTFEGNVATKAINGCIFTLNPKTGHLFLKIIHTSVWAGQKRLSQLAKWKTAEEVSALVRSLPKEEQPKQIIVTRKAMLDPLEVHMLDFPNIAIRPTELRLPFSAAMSIDKLSDVVMKATEPQMVLFNIYDDWLDRISSYTAFSRLTLLLRALKTNEESAKMILLSDPTITIKSYHLWPSFTDEQWITIESQMRDLILTEYGRKYNVNISALTQTEIKDIILGQNIKAPSVKRQKMAELEAARSEKQNDEEAAGASTVMKTKTINAQGEEIVVVASADYESQTFSSKNEWRKSAIANTLLYLRLKNIYVSADDFVEEQNVYVLPKNLLKKFIEISDVKIQVAAFIYGMSAKDHPKVKEIKTVVLVPQLGHVGSVQISNIPDIGDLPDTEGLELLGWIHTQTEELKFMAASEVATHSKLFADKKRDCIDISIFSTPGSVSLSAYNLTDEGYQWGEENKDIMNVLSEGFEPTFSTHAQLLLSDRITGNFIIPSGNVWNYTFMGTAFNQEGDYNFKYGIPLEFYNEMHKPVHFLQFSELAGDEELEAEQIDVFS
3,binds,GST-tagged Prp8-CTF with the RP mutation F2382L (domain or fragment) MKANPALYVLRERIRKGLQIYQSSVQEPFLNSSNYAELFNNDIKLFVDDTNVYRVTVHKTFEGNVATKAINGCIFTLNPKTGHLFLKIIHTSVWAGQKRLSQLAKWKTAEEVSALVRSLPKEEQPKQIIVTRKAMLDPLEVHMLDFPNIAIRPTELRLPFSAAMSIDKLSDVVMKATEPQMVLFNIYDDWLDRISSYTAFSRLTLLLRALKTNEESAKMILLSDPTITIKSYHLWPSFTDEQWITIESQMRDLILTEYGRKYNVNISALTQTEIKDIILGQNIKAPSVKRQKMAELEAARSEKQNDEEAAGASTVMKTKTINAQGEEIVVVASADYESQTFSSKNEWRKSAIANTLLYLRLKNIYVSADDFVEEQNVYVLPKNLLKKFIEISDVKIQVAAFIYGMSAKDHPKVKEIKTVVLVPQLGHVGSVQISNIPDIGDLPDTEGLELLGWIHTQTEELKFMAASEVATHSKLFADKKRDCIDISIFSTPGSVSLSAYNLTDEGYQWGEENKDIMNVLSEGFEPTFSTHAQLLLSDRITGNFIIPSGNVWNYTFMGTAFNQEGDYNFKYGIPLELYNEMHRPVHFLQFSELAGDEELEAEQIDVFS
